Measured values from publication PMC3678999, “A Structural Basis for IκB Kinase 2 Activation Via Oligomerization-Dependent Trans Auto-Phosphorylation” (PLoS Biology, 2013).
Where “and” joins values, the source holds several entries; their conditions need not be identical. Identical values can stand only once.

Tests used:
[1] = biological target: the molecule itself; assay: crystal structure; hexagonal crystal form, data to 7 Å; molecular replacement with the hIKK2EE(11–669) model and rigid body refinement, called a probable solution; protein mixed with inhibitor MLN120B
[2] = biological target: T1, His-tagged full-length human IKK2 (human), O14920; assay: SEC-MALS; SEC-MALLS; protein pretreated with 1 mM ATP, concentrated as for crystallization; Zenix SEC-300 column, 20 mM Tris-Cl pH 8, 150 mM NaCl, 5% glycerol; conditions: remark: other sources report otherwise
T1 chain: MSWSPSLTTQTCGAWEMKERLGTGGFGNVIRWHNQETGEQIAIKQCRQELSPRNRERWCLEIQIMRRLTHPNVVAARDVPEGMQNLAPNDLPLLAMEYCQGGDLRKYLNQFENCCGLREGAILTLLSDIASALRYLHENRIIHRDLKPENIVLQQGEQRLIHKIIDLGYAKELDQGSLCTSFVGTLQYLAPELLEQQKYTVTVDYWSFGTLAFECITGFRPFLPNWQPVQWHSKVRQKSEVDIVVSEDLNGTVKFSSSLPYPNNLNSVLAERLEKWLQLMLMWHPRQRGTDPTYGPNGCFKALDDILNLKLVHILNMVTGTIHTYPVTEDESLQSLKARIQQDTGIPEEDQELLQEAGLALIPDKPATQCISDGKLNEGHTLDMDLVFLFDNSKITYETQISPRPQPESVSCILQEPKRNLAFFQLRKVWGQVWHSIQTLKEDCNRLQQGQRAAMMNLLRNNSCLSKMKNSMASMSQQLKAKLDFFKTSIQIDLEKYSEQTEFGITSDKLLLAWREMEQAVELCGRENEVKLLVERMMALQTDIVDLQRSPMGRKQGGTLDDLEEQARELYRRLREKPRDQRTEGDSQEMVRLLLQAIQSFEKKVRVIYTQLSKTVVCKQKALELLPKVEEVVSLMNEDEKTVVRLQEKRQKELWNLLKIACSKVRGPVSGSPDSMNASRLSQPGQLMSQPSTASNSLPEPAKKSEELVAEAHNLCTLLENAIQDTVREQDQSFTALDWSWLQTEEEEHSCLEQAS

[3] = biological target: T1, His-tagged full-length human IKK2 …; assay: AUC; sedimentation velocity, ~0.5 mg/ml, 30,000 rpm, 20°C, 15 h; Sedfit; conditions: remark: other sources report otherwise
[4] = biological target: the molecule itself; assay: crystal structure; tetragonal crystal form, space group P4(1)22, six protomers in the asymmetric unit; protein mixed with inhibitor MLN120B 1:2; sodium malonate pH 6.5, 18°C

B1: human IKK2 (amino acids 1–700), constitutively active S177E/S181E (domain or fragment, UniProt O14920 1-700, looked up)
chain: MSWSPSLTTQTCGAWEMKERLGTGGFGNVIRWHNQETGEQIAIKQCRQELSPRNRERWCLEIQIMRRLTHPNVVAARDVPEGMQNLAPNDLPLLAMEYCQGGDLRKYLNQFENCCGLREGAILTLLSDIASALRYLHENRIIHRDLKPENIVLQQGEQRLIHKIIDLGYAKELDQGELCTEFVGTLQYLAPELLEQQKYTVTVDYWSFGTLAFECITGFRPFLPNWQPVQWHSKVRQKSEVDIVVSEDLNGTVKFSSSLPYPNNLNSVLAERLEKWLQLMLMWHPRQRGTDPTYGPNGCFKALDDILNLKLVHILNMVTGTIHTYPVTEDESLQSLKARIQQDTGIPEEDQELLQEAGLALIPDKPATQCISDGKLNEGHTLDMDLVFLFDNSKITYETQISPRPQPESVSCILQEPKRNLAFFQLRKVWGQVWHSIQTLKEDCNRLQQGQRAAMMNLLRNNSCLSKMKNSMASMSQQLKAKLDFFKTSIQIDLEKYSEQTEFGITSDKLLLAWREMEQAVELCGRENEVKLLVERMMALQTDIVDLQRSPMGRKQGGTLDDLEEQARELYRRLREKPRDQRTEGDSQEMVRLLLQAIQSFEKKVRVIYTQLSKTVVCKQKALELLPKVEEVVSLMNEDEKTVVRLQEKRQKELWNLLKIACSKVRGPVSGSPDSMNASRLSQPGQLMSQPSTASNSLPE
notes: human IκB kinase 2 (IKK2/IKKβ), amino acids 1–700 (amino acid 701 mutated to a stop codon), with S177E/S181E; Hexagonal crystal form, data to 7 Å; no PDB entry is named for it; also called hIKK2EE 1–700; hIKK2EE(1–700); source: Sf9 (baculovirus), purified (Ni-NTA, TEV, Superdex200); not shown: His6, N-terminal, cleaved
- stoichiometry N [1]: 2

B2: His-tagged full-length human IKK2, O14920 1-756 (enzyme)
chain: T1 chain
- stoichiometry N [2]: 4
- stoichiometry N [3]: 4 and 6 and 8

B3: human IKK2 (amino acids 11–669), constitutively active S177E/S181E (domain or fragment, UniProt O14920 11-669, looked up)
chain: TCGAWEMKERLGTGGFGNVIRWHNQETGEQIAIKQCRQELSPRNRERWCLEIQIMRRLTHPNVVAARDVPEGMQNLAPNDLPLLAMEYCQGGDLRKYLNQFENCCGLREGAILTLLSDIASALRYLHENRIIHRDLKPENIVLQQGEQRLIHKIIDLGYAKELDQGELCTEFVGTLQYLAPELLEQQKYTVTVDYWSFGTLAFECITGFRPFLPNWQPVQWHSKVRQKSEVDIVVSEDLNGTVKFSSSLPYPNNLNSVLAERLEKWLQLMLMWHPRQRGTDPTYGPNGCFKALDDILNLKLVHILNMVTGTIHTYPVTEDESLQSLKARIQQDTGIPEEDQELLQEAGLALIPDKPATQCISDGKLNEGHTLDMDLVFLFDNSKITYETQISPRPQPESVSCILQEPKRNLAFFQLRKVWGQVWHSIQTLKEDCNRLQQGQRAAMMNLLRNNSCLSKMKNSMASMSQQLKAKLDFFKTSIQIDLEKYSEQTEFGITSDKLLLAWREMEQAVELCGRENEVKLLVERMMALQTDIVDLQRSPMGRKQGGTLDDLEEQARELYRRLREKPRDQRTEGDSQEMVRLLLQAIQSFEKKVRVIYTQLSKTVVCKQKALELLPKVEEVVSLMNEDEKTVVRLQEKRQKELWNLLKIACSKVRGPV
notes: human IκB kinase 2 (IKK2/IKKβ), amino acids 11–669, with S177E/S181E; Cloned in pFastBacHTb (N-terminal hexa-histidine tag, TEV site); Incubated with ATP/MgCl2 before the size exclusion column; also called IKK2(11–669)EE; hIKK2EE(11–669); source: Sf9 (baculovirus), purified (Ni-NTA, TEV, Superdex200); not shown: His6, N-terminal, cleaved
- stoichiometry N [4]: 2 and 4
